Test results: a protein production outcome set (Wang et al. 2014)

Assay: label from the status in PepcDB records
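Note: failed if final PepcDB status was selected cloned or expressed and not failed if soluble or beyond.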

Sequence	protein production
MQTPKSRPGSLELPQKKSPLPAPKVVRRLKPSGAESDPKTKTISKTQIPKVVADRRSARIPLNEKKRTGRIPELESTISQLQEELKKAKEELNRSEALKREAQEEAEDAKHQLMDINASEDSRIEELRKLSQERDKTWQSELEAMQRQHGMDSTALSSAINEVQKLKSKLFESESELEQSKYEVRSLEKLVRQLEEERVNSRDSSSSMEVEELKEAMNLSRQEITQLKSAVEAAETRYQEEYIQSTLQIRSAYEQTEAVKSRYSQREAELTEELNRTKDEIEGLRKELMEKVKEDESTGDLKKLESDLMEVRGSLMDKEMELQILRSAMEKKVETANTEAMEAELKRVKIQCEQWRKAAETAASILNNDEERTDSIETSKMLKKFGVLLKKNHK	failed
MQTSIDPVFAGWDGSVAQARQLQQQLAQRVALRDEVSAAPALLAGFDVGFEDDGQTTRAAAVLLDAQTLLPLETHVARVPTSMPYVPGLLSFRELPALLRALALLARTPDLVFIDGQGIAHPRRFGIAAHFGVVTGLPSIGVAKQRLAGTFIEPGGERGDHSPILLAGAQIGWALRSKPRCNPLIVSPGHRVSMQGALDWTLRTLRAYRLPEPTRLADRLASRRGEIELQTQPTLLLEHHHHHH	failed
MQTTAAAQERYTRTAIFLHWCMTAMIVGLIGLGFYMGQQPPSPEKYALYELHKSLGVVTVLLLFARFIWRAANPPPELPTAYSQLLRTASHLGHFALYVLMFAVPVSGWVMSAAYGRPASLFGVPIPPPVTKSEDLAELWGTIHFALGSALALVIAGHTLFALKHHFIDKDGLLWRMWVRCP	failed
MQVEQRTLNTAAHPFQITAYWLDQISDFETAVDYPIMIICPGGGFTYHSGREEAPIATRMMAAGMHTVVLNYQLIVGDQSVYPWALQQLGATIDWITTQASAHHVDCQRIILAGFSAGGHVVATYNGVATQPELRTRYHLDHYQGQHAAIILGYPVIDLTAGFPTTSAARNQITTDARLWAAQRLVTPASKPAFVWQTATDESVPPINSLKYVQAMLQHQVATAYHLFGSGIHGLALANHVTQKPGKDKYLNDQAAIWPQLALRWLQEQGLLAGNYLEHHHHHH	not failed
MQVNIILLAAGKGQRFQSSSPNKIGCATIKQLARINDKPLIVHSIDKLQPLLKNAYVHNFFVTLGANKNAIQTVLPQDISVIASQHWAEGMGHTLAESVHSIKATSSHVLVALADQALITTEHYQELLSASKEQPNKIIATLCEGQLMAPAIFPEKYFPLLVKIQGDKGAGKLLLQHAKKADAITCEDAKIDIDTFSDLERVRQHLEYALQDNQQSSL	failed
MQVRTLTPDDLPQACALCMDAFMQAVAPTLSAQGIETFTQVSAPQAFAERMQGDNLMLACFVEGAIAGLIELKEGRHIAMLFIAPGLQRQGIGKRLMNAALEHASAEVVTVKASLSSVPAYQRYGFTLAGDVGEFAGLVYQPMEKRLPTQPALEHHHHHH	not failed
MQWDPGGATESRSKLYIYLRFLRIEQVFFSLPMAYMGAFLAIREIPPIQVLILMFFSLFFLRTAGMTNDNLADREIDAMNPRTKSRPLVTGKITVREAKLLITISLIGFFITAYLINLYALIFAPIVALIVMSYPYMKRYTAFANYHLASIQGLAVFSGAVASLGLYAKSFTQLVTGIPWLFVISTVFWAVGFDLYNHIPDADFDKKMGLHSFAVLLGDRALMFAGLNQLISVLLALFGDIQFNLGIIAYIATILHGLIMGYAYYSATRGNFGRAFYYNIYSSIVLGIGIIIDIIV	failed
MQWRFCLTTVLGVVLSFSPSVKVQAQGLESLTYYTENYPPLNFAKEDGKPAGIAVDLLLEAAAAVNVTLNLDQIFVQPWPRSYRSALLKQDGVLFSTTRTTHRENLFNWVGPIADIKVVVLARKSSQIKVNDPIELGNYRIGVIRDDIGEQQLLQLGVPRESMVEGSTVSSLAEQLLKKRIDLLAYDERTALWWMSQDSYPVEEFETVYVLMQGSLYYAFNKNIDKSVLNDLQKGIELIKNSVNENGVTRYQAILDKY	failed
MQYIKIHALDNVAVALADLAEGTEVSVDNQTVTLRQDVARGHKFALTDIAKGANVIKYGLPIGYALADIAAGEHVHAHNTRTNL	not failed
MRAADAPDAPLPEDRRNAPVWFAHDLEAPRCTALFPRLADRRPALVVVGGFLGSGKTTFLNNCIEYHRARERFVAVIQNEVGATGVDARLMGDGAEVLALDEGCVCCSLAGSLAGGIRAITADFTPEVILLETTGLANPLNLLAELDTLRDMVRLDAVVTVVDAANIVPTLRDSDIARDQIRGADIIVCNKCDTVDETGRAALRATLTGLNGRAALHETSFGRIHPSLFMALEGERPPRGLMPAPHGTHATHADEGFAAVRLFFSGTIDEAALAPLLQQCPGAPFRIKGIVRVTDDEAPRLVQCVGARCEVERLDGGFEGTPFLVFIGRNPDETALLEHWAALGATAEPPAPQAEADTQPAQATKSASGGQSSDATRGCHDHHLEHHHHHH	failed
MRAERGPPKQTISLPVALRKDRDMSEIAPQNRRIRPAAIVVLFLTIALTGCLLALGTWQVQRLFWKLDLIERVDVRAHAEPVDAPAASDWPALGNPSDYEYRRVKLTGTLLNDREVQVYTVTDLGPGYWVMTPLRRDDGSSIIVNRGFVPSDRRDPSSRTGGEPTGNVEIVGLMRAPETGGLFLRTNDPANGRWYSRNIPQITQASGLSDVAPFYVDADATPNPGGLPVGGKTMLTFPNNHLSYAVTWYILAAMVVAAGWYVLRNLNAPKSKRDAD	failed
MRAFIAIDVSESVRDALVRAQDYIGSKEAKIKFVERENFHITLKFLGEITEEQAEEIKKILEKIAKKYKKHEVNVRGIGVFPNPNYVRVIWAGVENDEIIKKIAKEIDDELAKLGFKKEGNFVAHITLGRVKFVKDKLGLAMKLKELANEDFGSFIVEAIELKKSTLTPKGPIYETLARFELSE	not failed
MRAGVREVIDDSSERTLQQVIERAFLRTKGAIIRQKRVFGFVSAKGGDGGSCIAANFAFALSQEPDIHVLAVDISLPFGDLDMYLSGNTHSQDLADISNASDRLDKSLLDTMVQHISPSLDLIPSPATFEKIVNIEPERVSDLIHIAASFYDYIIVDFGASIDHVGVWVLEHLDELCIVTTPSLQSLRRAGQLLKLCKEFEKPISRIEIILNRADTNSRITSDEIEKVIGRPISKRIPQDEDAMQESLLSGQSVLKVAPKSQLSKTIVDWALHLNGVSRPNKRSIWERLKIK	not failed
MRAISQYIAIFVITLTLSGCFFQNSDDQRWELAPQGTTSFALSRDARFALFFVKNDSIPEKNESQVKSGLHFWDLVENKELTFFGDQDQDKSTVSYIRISDNSRFAITATQTNFAVWDLGMGISEGLWSISDGIIRDVAIASNGQQVLLGLSNGKAIYINLATGRRLEFLAHREKVNSVALSANGKFALSGGNDYFAYLWDTETGQILRTFEHEKRVSRTALQRDGKYAFTADGGNEGFIWDLKTGEKITELSTLARQQVYSTARFSDDGQLLVTGSPSGTVNVWNTTSGKKLEQWRSEPLKDARPPTAVVYDVAIDKQQRVVSATSAGIAQAWLIE	failed
MRAKKRKFLQKEELSKLLQSLDMSQIGFGWFVMLAAKTGMRYAEALAITPADFDWTAQTISINKTWDYKYNKGFAKTKTLSSVRTIKIDWQIVGQFKPLIKDFPEDEPIFVEKFGDGTYKRQFNSTINNFLAVKCNETGITQISFHALRHTHASVLLAEGVSIHTISARLGHADVGVTQETYAHVLDELQKKDDQKMLSVLMQIALEHHHHHH	not failed
MRALRGWPLAWFLLALAFAIRLLSLGSYPLMDTTEARYGEVARKMAELGDWITPWYDVGVPFWGKPPLAFWLSAGGQLLLGANEFASRLPHWLLGVLVLWLVWDWQAREDRRQARIACVLLGSSALFFVASGAVMTDMALALALVLAMRGFWLGLHGAEGIRRREGWLMFLGLGLGLLAKGPLTLILAGLPIGLWALLEWRWRALWRGLPWIRGSLLMLLVAAPWYLLAELKTPGFLEYFLLGEHWQRFVTAGWDGDRYGNAHAYPYGSVWLFLLAAAFPWSLWLPLLLWLGWRQRGEVVDGVASRRRYWLFWGLAPCLFFTFAGNVLWTYVLPGLPALALLAADLLRAPLARSAWLRRGGLACLALTPLLFALFLGSLLLGSRAEQKSTAALLASDAGWRERPLVFWPKRPYSAVFYSGGRAQRAEDSELAGWLRRDALLAIRSRSFGALPDEVRQRLRCRPPVGQYQLCQGVAPPG	failed
MRAMSKFSRIGLAGVVGAALHAILANHLAPAVQQRLPIGRVSLTFFLALLSALAAGAVLARLAPRARVAALAVAALAFLLLAAATTWLQQCTPAQLAAIDAATPLGCNLGLYNRARAHLPPDGRPAELAPGVWFDRHGLSYACLPPEAQATHLRVALADYALALVGMSLGALLGARQRRRRDQD	failed
MRASKASADESLNVFPVPADSPGSPIAGANGVPKEISLPGEARPFHLANSAFWPYVLLFVSSLTLSGCAGMVDMVRDVTRSLADIDVSGITDLFGSGEVQMSPEQIAQLEVIPSTRPGWEASVEESPAAVFLPVFGDGAVYAGGPDGRLVRFDPASGKASGVIDTKHPLAGGIGTGDGMLLVGTFKGEVLAFDEKSGKPKWTANLSTEVLSPPHAGMGVVVVRTGDGRIYGLDSESGKRKWVYQGATPSLTVRSFAGALIADDRVYAGFAGGRLVALNLSNGSLVWEAMVSRPRGATELERISDVTSLPVLDEQQVCAVAYQGRIACFDITAGNQIWTRDVSSNAGLAMDDNYVYVSENRGGIVAYDKRDGTSIWAQDLLNGLKLSAPLVHGARIVVGDSQGYVNFIRKDNGAIIARSGTDESAITARPISLPNGIAVQTRKGGVFAFGA	failed
MRAYQIMSRQVVSIRPEAPITDAIKVMLAHHISGLPVVDSADNLVGIICESDFLRRSEIGTEHERNRLLSLLLGAERVASEFVKERGRKVEQVMTRQPVTTNEQAPLDEVADVMERRHLNHIPVMRADRIVGIITRSDFLSAVAGPLTGASGYSGSDNQLRRAVLAALAKTPWQPIGLNVRVRDGAVSLRGVIRGESAHRAAIVACENVPGVLRVDDRLCVQPSRPDPEDDYGGGDFVSLQMEPSTLDDEPL	failed
MRDGVSPEQPKVSVIMPVRDGERWVAEAIRSVQSQTFRDFELLVIDDGSADATPAILAEAAAADPRIFVLTQHRDGLVAGLNRGLAAARAPLIARLDADDIALPDRLARQVDYMTTHPAVVLLGGWATIVDENGQPKGRDMRPNPNDLRATLMKKSPFIHPTVMFRAEAARRVGGYHAAFEAGEDYDFWLRLADIGEVAILPELLIRYREHSASVTRTRQLRQIYSARLAKLAAAARQAGQPDPSAPLTTPPDWHDASPGPFERDSSRLFRMLELADPAVAARIAPSAIDLNAITSQLGTLTAGERKFAQAALLNLLRANKLPSLAARWSAVFLLVRLGPLKAIKAARQLRNR	failed
MRDLVSCFSENSINVTHPLSISSSSSSCSKYSTNNVCISPSLIPSIQTSITSIYRITLSKHLIIKVTWCNPHNNNGLSISVASADQNPSTTLKLNTSSRFFRKKKGNKSVDSDLGKIEVFWDLSSAKYDSNLCGPEPINGFYVIVLVDGQMGLLLGDSSEETLRKKGFSGDIGFDFSLVSRQEHFTGNNTFYSTKVRFVETGDSHEIVIRCNKETEGLKQSNHYPVLSVCIDKKTVIKVKRLQWNFRGNQTIFLDGLLVDLMWDVHDWFFSNQGACGRAVFMFRTRNGLDSSRLWLEEKIVKKDQQDKLDFSLFIYACKT	failed
